Here are results for six molecules from patent US20210380702A1 (Regeneron, published 2021).

Substitutions are numbered along the chain they refer to.

First the molecules themselves.
B1: H2aM8306N (antibody, mouse IgG2, V domains shown)
VH: EVQLVESGGGLVQPGGSLRLSCAASGFTFSRFWMSWVRQAPGKGLEWVANINQDGTEKYYVDSVKGRFTISRDNAKNSLYLQMNSLRAGDTAVYYCANTYYDFWSGHFDYWGQGTLVTVSS
VL: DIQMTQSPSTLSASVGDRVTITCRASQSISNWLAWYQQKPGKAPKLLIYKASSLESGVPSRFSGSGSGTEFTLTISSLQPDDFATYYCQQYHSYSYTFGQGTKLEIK
notes: also called H2M8306N
B2: H2aM8310N (antibody, mouse IgG2, V domains shown)
VH: QVQLVQSGAEVKKPGASVQVSCKASGYSFTGYYIHWVRQAPGQGLEWMGWINPNSGTKKYAHKFQGRVTMTRDTSIDTAYMILSSLISDDTAVYYCARDEDWNFGSWFDSWGQGTLVTVSS
VL: DIVMTQTPLSSPVTLGQPASISCRSSQTLVHGDGNTYLSWIQQRPGQPPRLLIYKVSNQFSGVPDRFSGSGAGTDFTLKISRVEAEDVGLYFCMQATHFPITFGQGTRLEIK
notes: also called H2M8310N
B3: H2aM8314N (antibody, mouse IgG2, V domains shown)
VH: EVQLVESGGGVVRPGGSLRLSCAASGFTFDDYGMTWVRQAPGRGLEWVSGIHWHGKRTGYADSVKGRFTISRDNAKKSLYLQMNSLKGEDTALYHCVRGGMSTGDWFDPWGQGTLVIVSS
VL: DIQMTQSPSSLSASLGDRVTITCRASQSINSYLNWYQQKPGKAPKLLIYVASSLQSGVPSRFSGSGSGTEFTLTISNLQPEDFATYYCQQSYSTPPITFGQGTRLEIK
notes: also called H2M8314N
B4: H2aM8317N (antibody, mouse IgG2, V domains shown)
VH: EVQLVESGGGLVQPGGSLRLSCAASGFTVGSNYMNWVRQAPGKGLEWVSVIYSGGSTYYADSVKGRFTISRLTSKNTLYLQMSSLRPEDTAVYYCARGIRGLDVWGQGTTVTVSS
VL: B3 VL with L15V, S28T, S31I, K42R, K45R, V50A, E70D, N77S, Q89H
notes: also called H2M8317N
B5: H2aM8312N (antibody, mouse IgG2, V domains shown)
VH: QVHLVQSGAEVKKPGASVKVSCKASGYTFTGYYIHWVRQAPGHGLEWMGWLNPNTGTTKYIQNFQGRVTMTRDTSSSTAYMELTRLRSDDTAVYYCARDEDWNYGSWFDTWGQGTLVTVSS
VL: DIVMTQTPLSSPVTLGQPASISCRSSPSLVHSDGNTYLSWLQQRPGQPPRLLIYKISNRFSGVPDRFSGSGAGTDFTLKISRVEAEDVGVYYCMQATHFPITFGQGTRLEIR
notes: also called H2M8312N
B6: H2aM8309N (antibody, mouse IgG2, V domains shown)
VH: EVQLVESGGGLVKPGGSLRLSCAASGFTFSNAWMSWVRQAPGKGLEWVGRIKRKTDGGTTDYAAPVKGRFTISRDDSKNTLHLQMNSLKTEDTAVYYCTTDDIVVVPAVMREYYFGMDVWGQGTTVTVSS
VL: DIQMTQSPSSLSASVGDRVTITCRTSQGIRNDLGWYQQKPGKAPKRLIYAASSLQSGVPSRFSGSGSGTEFTLTISSLQPEDFATYYCLQHNNYPYTFGQGTKLEIK
notes: also called H2M8309N

T3 sequence (chain, as listed by the source limits assumed): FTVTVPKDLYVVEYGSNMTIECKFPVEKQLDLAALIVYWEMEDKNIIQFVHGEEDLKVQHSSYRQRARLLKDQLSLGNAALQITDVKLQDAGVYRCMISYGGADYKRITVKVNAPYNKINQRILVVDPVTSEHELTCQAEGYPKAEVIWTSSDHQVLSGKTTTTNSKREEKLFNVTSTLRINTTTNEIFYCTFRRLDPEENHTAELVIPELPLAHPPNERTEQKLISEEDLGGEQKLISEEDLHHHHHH
T1 sequence (Q9NZQ7 19-239): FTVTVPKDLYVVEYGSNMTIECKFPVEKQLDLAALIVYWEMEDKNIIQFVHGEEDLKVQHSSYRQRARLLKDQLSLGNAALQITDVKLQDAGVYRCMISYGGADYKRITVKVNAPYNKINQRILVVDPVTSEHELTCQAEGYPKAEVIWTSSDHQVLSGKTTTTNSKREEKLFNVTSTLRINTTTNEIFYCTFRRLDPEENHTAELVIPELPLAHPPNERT

One test has as its target T1, Human PD-L1 Dimer (human, UniProt Q9NZQ7 19-239).
T1 construct: also called hPD-L1 dimer; hPD-L1-hFc
Kind of test: SPR (Biacore), mAb captured, 25C. As for the experimental part:
(§1) Binding association and dissociation rate constants (kₐ and kd, respectively), equilibrium dissociation constants and dissociation half-lives (KD and t_{1/2}, respectively) of antigen binding to purified anti-PD-L1 monoclonal antibodies were determined using a real-time surface plasmon resonance biosensor assay on a Biacore 4000 instrument. The Biacore sensor surface was either derivatized with polyclonal rabbit anti-mouse antibody (GE, #BR-1008-38) or with monoclonal mouse anti-human Fc antibody (GE, #BR-1008-39) to capture approximately 200-300 RUs of anti-PD-L1 monoclonal antibodies, expressed with either a mouse Fc or with human Fc, respectively. […] Different concentrations of PD-L1 reagents were injected over the anti-PD-L1 monoclonal antibody captured surface at a flow rate of 30 μL/min. The binding of the PD-L1 reagents to the captured monoclonal antibodies was monitored for 3 to 4 minutes while the dissociation of antibody bound PD-L1 reagents was monitored for 10 minutes in HBST running buffer (0.01 M HEPES pH 7.4, 0.15 M NaCl, 3 mM EDTA, 0.05% v/v Surfactant tween-20). Experiments were performed at either 25° C. or 37° C. Kinetic association (kₐ) and dissociation (kd) rate constants were determined by processing and fitting the data to a 1:1 binding model using Scrubber 2.0c curve fitting software. Binding dissociation equilibrium constants (KD) and dissociative half-lives (t_{1/2}) were then calculated from the kinetic rate constants as: KD (M)=kd/kₐ and t_{1/2} (min)=[In2/(60*kd)].
(SPR reads the build-up and loss of mass on a sensor chip optically.)
As for B1, the Kd was 0.418 nM, the dissociation rate constant (koff) worked out at 0.000309 s⁻¹, the kon came out at 739000 M⁻¹ s⁻¹ and the t1/2 worked out at 37 min.
On to B2, for which the Kd turned out to be 0.183 nM, the koff turned out to be 5.71e-05 s⁻¹, the kon was 313000 M⁻¹ s⁻¹ and the t1/2 was determined as 202 min.
In the same order, the values of B3 are 0.00426 nM, 1.35e-05 s⁻¹, 3.16e+06 M⁻¹ s⁻¹ and 859 min.
In the same order, the values of B4 are 1.25 nM, 0.00045 s⁻¹, 359000 M⁻¹ s⁻¹ and 26 min.
The molecule B5 gave a Kd of 0.413 nM, a koff of 0.000102 s⁻¹, an association rate constant (kon) of 247000 M⁻¹ s⁻¹ and a t1/2 of 113 min.
B6: the equilibrium dissociation constant (Kd) stood at 0.0429 nM, the koff is 0.000144 s⁻¹, the kon stood at 3.36e+06 M⁻¹ s⁻¹ and the t1/2 was 80 min.

Another test deals with T2, recombinant cynomolgus monkey PD-L1 with a C-terminal myc-myc-hexahistidine tag (cynomolgus monkey (Macaca fascicularis)).
T2 construct: also called MfPD-L1-MMH; MfPD-L1-MMH Monomer
T2 sequence (chain, as listed by the source limits assumed): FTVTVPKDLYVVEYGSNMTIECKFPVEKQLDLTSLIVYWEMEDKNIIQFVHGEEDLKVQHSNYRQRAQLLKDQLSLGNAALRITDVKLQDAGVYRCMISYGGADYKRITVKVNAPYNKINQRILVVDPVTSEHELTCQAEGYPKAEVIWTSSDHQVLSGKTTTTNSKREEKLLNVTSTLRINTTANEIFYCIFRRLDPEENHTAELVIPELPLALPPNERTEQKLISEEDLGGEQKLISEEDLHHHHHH
Put plainly: SPR (Biacore), mAb captured, 25C. As for the experimental part:
as §1
B1: the Kd came to 47.7 nM, the koff was 0.00788 s⁻¹, the kon came to 165000 M⁻¹ s⁻¹ and the t1/2 worked out at 1.5 min.
Turning to B2, the Kd was found to be 2.97 nM, the off-rate (koff) came out at 0.000306 s⁻¹, the on-rate constant (kon) came to 103000 M⁻¹ s⁻¹ and the t1/2 was 38 min.
On to B3, for which the Kd was determined as 0.0724 nM, the koff is 7e-05 s⁻¹, the kon worked out at 966000 M⁻¹ s⁻¹ and the t1/2 was found to be 165 min.
In the same order, the values of B4 are 226 nM, 0.0238 s⁻¹, 106000 M⁻¹ s⁻¹ and 0.5 min.
In the same order, the values of B5 are 8.42 nM, 0.000597 s⁻¹, 70900 M⁻¹ s⁻¹ and 19 min.
In the same order, the values of B6 are 14.9 nM, 0.013 s⁻¹, 870000 M⁻¹ s⁻¹ and 0.9 min.

Another test concerns the target T1, Human PD-L1 Dimer. Kind of test: SPR (Biacore), mAb captured, 37C. As for the experimental part:
as §1
B1 gave a Kd of 0.417 nM, an off-rate (koff) of 0.000416 s⁻¹, a kon of 997000 M⁻¹ s⁻¹ and a t1/2 of 28 min.
Molecule B2 came in with a Kd of 0.258 nM, a koff of 0.000124 s⁻¹, a kon of 481000 M⁻¹ s⁻¹ and a t1/2 of 93 min.
For B3, the Kd is 0.00591 nM, the koff turned out to be 2.3e-05 s⁻¹, the kon was determined as 3.89e+06 M⁻¹ s⁻¹ and the t1/2 turned out to be 503 min.
The corresponding values for B4 are 1.36 nM, 0.000657 s⁻¹, 481000 M⁻¹ s⁻¹ and 18 min.
The corresponding values for B5 are 0.732 nM, 0.000261 s⁻¹, 357000 M⁻¹ s⁻¹ and 44 min.
The molecule B6 came in with a dissociation constant (Kd) of 0.0376 nM, a koff of 0.000166 s⁻¹, an on-rate constant (kon) of 4.41e+06 M⁻¹ s⁻¹ and a t1/2 of 70 min.

Another test has as its target T3, recombinant human PD-L1 (amino acids 19-239 of NP_054862.1) with a C-terminal myc-myc-hexahistidine tag (human).
T3 construct: also called hPD-L1-MMH; hPD-L1-MMH Monomer
Kind of test: SPR (Biacore), mAb captured, 37C. As for the experimental part: as §1
B1: the Kd amounted to 172 nM, the koff is 0.031 s⁻¹, the kon came to 180000 M⁻¹ s⁻¹ and the t1/2 is 0.4 min.
In the same order, the values of B2 are 9.7 nM, 0.00128 s⁻¹, 132000 M⁻¹ s⁻¹ and 9 min.
The corresponding values for B3 are 0.14 nM, 0.00015 s⁻¹, 1.07e+06 M⁻¹ s⁻¹ and 77 min.
In the same order, the values of B4 are 647 nM, 0.0585 s⁻¹, 90300 M⁻¹ s⁻¹ and 0.2 min.
In the case of B5, the Kd was determined as 45.3 nM, the koff stood at 0.00403 s⁻¹, the association rate constant (kon) came to 88900 M⁻¹ s⁻¹ and the t1/2 came to 2.9 min.
In the case of B6, the Kd was determined as 29.7 nM, the koff amounted to 0.0314 s⁻¹, the kon is 1.06e+06 M⁻¹ s⁻¹ and the t1/2 was found to be 0.4 min.

A further test has as its target T2, recombinant cynomolgus monkey PD-L1 …. Kind of test: SPR (Biacore), mAb captured, 37C. As for the experimental part: as §1
Take B1: the Kd stood at 134 nM, the koff is 0.0368 s⁻¹, the kon stood at 274000 M⁻¹ s⁻¹ and the t1/2 turned out to be 0.3 min.
The corresponding values for B2 are 2.27 nM, 0.00107 s⁻¹, 471000 M⁻¹ s⁻¹ and 11 min.
In the same order, the values of B3 are 0.142 nM, 0.000152 s⁻¹, 1.07e+06 M⁻¹ s⁻¹ and 76 min.
The corresponding values for B4 are 179 nM, 0.0476 s⁻¹, 266000 M⁻¹ s⁻¹ and 0.2 min.
For B5, the Kd was 32.7 nM, the koff is 0.00332 s⁻¹, the kon came to 101000 M⁻¹ s⁻¹ and the t1/2 turned out to be 3.5 min.
The corresponding values for B6 are 26.3 nM, 0.0281 s⁻¹, 1.07e+06 M⁻¹ s⁻¹ and 0.4 min.

In general, Kd refers to the constant that tells how readily two partners part at equilibrium. The term koff denotes the rate constant with which the complex falls apart. As a reminder, the kon is a measure of how fast the partners come together.
